The chains are these.
B1: Twister Ribozyme (parent)
chain: AACACUGCCAAUGCCGGUCCCAAGCCCGGAUAAAAGUGGAGGGGGCGG

The variants in this data set derive from B1. Kind of data set: self-cleavage, relative activity (ratio to wild type); higher = more cleavage; co-transcriptional.
Turning to C19G A22G, the self-cleavage was found to be 0.0844. Under C19A G48U stands 0.206; under C19G U37A, 0.0632; under C19G U37C, 0.138.

For C19G G44U, the self-cleavage is 0.29. Next, C19G G44C: 0.27; C20U G42U: 0.399; C20U G42A: 0.935. Next, C20G A33C: 0.0661; C20G A33G: 0.0756. Under C20G A33U stands 0.13; under C20U A34C, 0.0697; under C20U G45U, 0.802. Regarding C20G C26U, the self-cleavage was determined as 0.0527. Under C21G C25A stands 0.0791.

For the variant C19U G44A, the self-cleavage was found to be 1.03. For the variant C19U G44C, the self-cleavage was 0.608. Next, C19U G44U: 0.86. Next, C20G G42U: 0.386; C20G G42A: 0.083.

For the variant C20G G42C, the self-cleavage turned out to be 0.791. As for C19U C21A, the self-cleavage is 0.0697.

As for C19U C21G, the self-cleavage was 0.107. Under C19U A30G stands 0.918.

On to C20A C27U, for which the self-cleavage stood at 0.0852. Under C20A C27A stands 0.0891; under C20A C27G, 0.0759. Next, C20G A32C: 0.078.

As for C20G A32U, the self-cleavage came to 0.0524.

For C20G A32G, the self-cleavage was determined as 0.0903. Next, C19U G28C: 0.908; C21G C26G: 0.0411; C20G A22G: 0.0602.

On to C19G G28C, for which the self-cleavage is 0.108. Regarding C19G G36C, the self-cleavage turned out to be 0.118. Next, C19G G36A: 0.101; C20U A35C: 0.881; C20U A35U: 1.08. Under C19G G24A stands 0.0928; under C19G G24C, 0.125. Turning to C21U A33C, the self-cleavage was found to be 0.119. Consider C21U A33U, for which the self-cleavage is 0.0831. Under C19U A22C stands 1.15; under C19U A22U, 0.601.

With C21A G24C, the self-cleavage was 0.0911.

On to C21A G24A, for which the self-cleavage is 0.0758.

With C20A A30U, the self-cleavage is 0.175. Under C20A A30C stands 0.109; under C20U A23U, 0.17; under C19U G45C, 0.38. Under C19U G45A stands 0.915; under C19A G45A, 0.196; under C19A G45U, 0.257.

For C20A A33G, the self-cleavage was found to be 0.116. Next, C20A A33C: 0.0903; C20U G24A: 0.0805; C20G C25U: 0.0692. For C20G C25A, the self-cleavage is 0.0525. Under C20A A22U stands 0.0761; under C20A A22G, 0.0601; under C19U G39A, 0.28. Under C19U G39C stands 0.0962; under C19U G39U, 0.125. Under C19G G29U stands 0.29. Consider C19G G29C, for which the self-cleavage came to 0.0886. Under C20A C46U stands 0.154. Regarding C20A C46A, the self-cleavage was 0.0788. For C19U G47C, the self-cleavage worked out at 0.235. In the case of C19G C27G, the self-cleavage stood at 0.0733. Next, C19G C27A: 0.0851; C19U A32U: 1.02; C19U G48A: 0.915. Next, C19G A35G: 0.0996; C19U C27A: 0.176; C19U C27G: 0.0975. Next, C20G C46G: 0.126. Take C19U U37C: the self-cleavage was 0.242.

As for C21G G48C, the self-cleavage was 0.0934. Take C21G G48U: the self-cleavage worked out at 0.0902.

For C21U C26G, the self-cleavage was found to be 0.0581.

With C21U C26U, the self-cleavage came to 0.0769.

Turning to C21A A35G, the self-cleavage came out at 0.0738. Next, C21A A35C: 0.083. Regarding C20A C25A, the self-cleavage turned out to be 0.0826.

Take C20A G47U: the self-cleavage came out at 0.103. Under C19A G42U stands 0.103.

Turning to C19A G42A, the self-cleavage is 0.135.

As for C19A G42C, the self-cleavage turned out to be 0.197. Under C21G A40G stands 0.0831; under C21G A40C, 0.0546; under C21U A34G, 0.0608. Under C21U A34U stands 0.11. Next, C19G G47A: 0.105; C19G G47C: 0.193; C21G G41U: 0.32. Take C21G G41C: the self-cleavage is 0.577.

On to C20A A35U, for which the self-cleavage stood at 0.151. Regarding C20A A35C, the self-cleavage was determined as 0.191. Next, C19A G47A: 0.139; C19A G47C: 0.155. Under C19G C25G stands 0.124; under C19G C25U, 0.151. Under C20U C27A stands 0.171.

As for C20U C27U, the self-cleavage was 0.708. Under C20U C27G stands 0.0816; under C21A G29U, 0.134.

For C19U G38A, the self-cleavage was 0.855. Under C19U G38U stands 0.36; under C19U G38C, 0.782. In the case of C20U A40U, the self-cleavage was 0.125. Under C20U A40G stands 0.149; under C19A U31G, 0.334; under C20G A35C, 0.14.

On to C21A A30G, for which the self-cleavage amounted to 0.0944. Next, C21A G36U: 0.0686.

For the variant C21A G36C, the self-cleavage is 0.109. For the variant C19U A34U, the self-cleavage came to 0.56.

Turning to C19U G42U, the self-cleavage turned out to be 0.142.

As for C20G G24C, the self-cleavage was found to be 0.123. On to C20G G24U, for which the self-cleavage was 0.0899. For C20G G24A, the self-cleavage was 0.109. Next, C19G A40G: 0.135. Consider C19G A40U, for which the self-cleavage is 0.0582.

As for C20A U37G, the self-cleavage was determined as 0.109. Under C20A U37C stands 0.111.

Consider C20A U37A, for which the self-cleavage was determined as 0.0773. Next, C21A G48A: 0.107. Next, C21A G48U: 0.154.

As to C20G G48A, the self-cleavage was 0.124.

In the case of C20G G48U, the self-cleavage stood at 0.12. Under C20G A40G stands 0.104. Next, C19G A30C: 0.0929. Under C19G A34G stands 0.108.

As to C19G A34U, the self-cleavage was 0.12. Under C21U A30C stands 0.0806; under C21U A30U, 0.141; under C21G G38U, 0.0824. Under C21G G38C stands 0.0966; under C20G A23G, 0.0348; under C20A C21G, 0.0829. Consider C20A C21U, for which the self-cleavage worked out at 0.0931. Next, C20A C21A: 0.0664; C21U C25U: 0.0856; C21G U37A: 0.101.

Take C21G U37C: the self-cleavage was found to be 0.0765. Under C21U C27A stands 0.0634; under C19A G43C, 0.317.

Consider C20A G48C, for which the self-cleavage was 0.169. C21A A22U: the self-cleavage turned out to be 0.0641. Under C21G G45C stands 0.0674; under C21G G45U, 0.0493. Under C21G G45A stands 0.114. Under C19U U31A stands 0.682. For the variant C19U U31G, the self-cleavage is 0.956.

With C19U U31C, the self-cleavage was found to be 0.971.

In the case of C20U G47U, the self-cleavage amounted to 0.564. Next, C20U G47C: 0.165; C19G G45A: 0.321; C20U G43U: 0.146. Under C20U G43A stands 0.177; under C19U A33G, 0.889; under C20A G41C, 0.0888.

Regarding C20A G41U, the self-cleavage was 0.0817. Regarding C20A A32U, the self-cleavage was found to be 0.186. Next, C20G G41C: 0.0754; C20G G41A: 0.0636. C21G A30U: the self-cleavage stood at 0.0816.

(Values after the RNAGym collection of RNA variant scans (doi:10.7554/elife.80360).)
